Test results reported in US20020198363A1.

Biological target: chimera protein of europium (Eu) labeled human glycoprotein Ib α-chain and a mouse IgG2a Fc region (human; mouse) (UniProt P07359)
Chain of UniProt P07359 (P07359 17-335 limits assumed, change not shown): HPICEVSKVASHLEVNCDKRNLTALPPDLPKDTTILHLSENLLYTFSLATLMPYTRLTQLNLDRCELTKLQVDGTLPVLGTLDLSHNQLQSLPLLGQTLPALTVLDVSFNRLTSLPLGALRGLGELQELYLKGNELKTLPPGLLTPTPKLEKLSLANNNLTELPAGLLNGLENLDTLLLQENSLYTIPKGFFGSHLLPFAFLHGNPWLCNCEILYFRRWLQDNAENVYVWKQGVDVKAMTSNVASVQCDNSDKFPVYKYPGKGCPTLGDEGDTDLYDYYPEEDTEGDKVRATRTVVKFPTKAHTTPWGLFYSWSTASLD

Substance	IC50
AS1051-PEG5000 (from UniProt P81508 1-126)	0.0981 µg/mL
AS1051-PEG20000 (from UniProt P81508 1-126)	0.0903 µg/mL
